B1: papain: papain, pI of about 8.75 and maximal activity at pH 7.8 (protein, UniProt P00784 134-345, looked up)
Papain: IPEYVDWRQKGAVTPVKNQGSCGSCWAFSAVVTIEGIIKIRTGNLNEYSEQELLDCDRRSYGCNGGYPWSALQLVAQYGIHYRNTYPYEGVQRYCRSREKGPYAAKTDGVRQVQPYNEGALLYSIANQPVSVVLEAAGKDFQLYRGGIFVGPCGNKVDHAVAAVGYGPNYILIKNSWGTGWGENGYIRIKRGTGNSYGVCGLYTSSFYPVKN
B2: subtilisin Carlsberg: subtilisin Carlsberg (from Bacillus licheniformis) (protein, UniProt P00780 106-379, looked up)
Subtilisin Carlsberg: AQTVPYGIPLIKADKVQAQGFKGANVKVAVLDTGIQASHPDLNVVGGASFVAGEAYNTDGNGHGTHVAGTVAALDNTTGVLGVAPSVSLYAVKVLNSSGSGSYSGIVSGIEWATTNGMDVINMSLGGASGSTAMKQAVDNAYAKGVVVVAAAGNSGSSGNTNTIGYPAKYDSVIAVGAVDSNSNRASFSSVGAELEVMAPGAGVYSTYPTNTYATLNGTSMASPHVAGAAALILSKHPNLSASQVRNRLSSTATYLGSSFYYGKGLINVEAAAQ
B3: Subtilisin BPN': subtilisin BPN' (from Bacillus amyloliquefaciens) (protein, UniProt P00782 108-382, looked up)
Subtilisin BPN': AQSVPYGVSQIKAPALHSQGYTGSNVKVAVIDSGIDSSHPDLKVAGGASMVPSETNPFQDNNSHGTHVAGTVAALNNSIGVLGVAPSASLYAVKVLGADGSGQYSWIINGIEWAIANNMDVINMSLGGPSGSAALKAAVDKAVASGVVVVAAAGNEGTSGSSSTVGYPGKYPSVIAVGAVDSSNQRASFSSVGPELDVMAPGVSIQSTLPGNKYGAYNGTSMASPHVAGAAALILSKHPNWTNTQVRSSLENTTTKLGDSFYYGKGLINVQAAAQ

Legend:
CT = CT (Bos taurus, UniProt P00766); assay: Transesterification with CT pre-inactivated by PMSF; format: biochemical; settings: PMSF 0.3 mM
Protocol: Values for kcat /Km were determined by nonlinear fit of the kinetic data and represent averages of triplicate measurements with standard deviations in each case of less than 5%. Initial rates of formation of N-acetyl-L-phenylalanine propyl ester were determined by gas chromatography (530-μm fused silica gum (Hewlett-Packard)). […] Saturation kinetics could not be determined for reactions with CT suspended in isooctane as the solubility limit for the substrate in this solvent is substantially below the Km of the enzyme.

[1] = Extraction of enzyme from aqueous solution into isooctane containing 2 mM AOT; format: physicochemical
[2] = source not stated; cited from earlier work
[3] = source not stated; cited from earlier work; remark: listed apart in the source
[4] = 1 mg/ml aqueous enzyme, pH 7.8, 2 mM CaCl2, 2 mM AOT in isooctane

Molecule | reaction with pre-inactivated CT (CT) | Extraction Yield (enzyme in organic phase) ([1]; 0.5 mg/ml aqueous papain, pH 7.8, CaCl2, MnCl2, KCl, 2 mM AOT in isooctane) [mg/mL] | pH of maximal activity [2] | pI [3] | Extraction Yield (enzyme in organic phase) [1, 4] [mg/mL] | extraction ([1]; 1 mg/ml aqueous solution, pH 7.8, 2 mM AOT in isooctane) [%]
O=S(=O)(F)Cc1ccccc1 [phenylmethanesulfonyl fluoride] | No reaction was observed |  |  |  |  | 
B1 |  | 0.35 | 7.8 | about 8.75 |  | 
B2 |  |  | ~7.8 | 8.5 | 0.3 | 
B3 |  |  | 7.8 | 9.4 | 0.4 | 40
